Experimental findings from US20250109212A1 (BIOSION, published 2025) are described below.

The target of assay [1] is T1, recombinant human CD40-his protein (Cat #: CD0-H5228, Acro biosystems) (human, UniProt P25942 21-193).
T1 construct: Bought protein
In words: SPR (Biacore T200), sample on Protein A chip, antigen-his analyte, 1:1 fit. From the text:
The purified recombinant fusion proteins were characterized for their binding affinity and binding kinetics by Biacore T200 system (GE healthcare, Pittsburgh, PA, USA). The anti-CD40 antibody HuCD40-C1H1-V2 (having the heavy chain and the light chain of SEQ ID NOs: 19 and 20), Selicrelumab (an agonistic anti-CD40 antibody, Roche Inc., prepared in-house with heavy and light chains of SEQ ID NOs: 27 and 28), and SIRPα-Fc fusion proteins, including SIRPαV2D1M1-Fc (IgG2) (SEQ ID NO: 21, X1=I, X2=R, X3=T, X4=K, X5=F), SIRPαV2D1M2-Fc (IgG2) (SEQ ID NO: 21, X1=I, X2=R, X3=T, X4=R, X5=V), SIRPα-isoform2-Fc (SEQ ID NO: 25) were used as positive controls.
A Protein A chip (Cat #: 29-1275-56, GE healthcare) was used for affinity determination. The recombinant fusion proteins of the disclosure and the positive controls each at the concentration of 2 μg/ml were respectively flowed onto the chip at a flow rate of 10 μl/min. Then, serially diluted recombinant human CD40-his proteins (Cat #: CD0-H5228, Acro biosystems), human CD47-his proteins (Cat #: CD7-H5227, Acro biosystems), cynomolgus CD40-his proteins (Biosion in house made, SEQ ID NO: 29) or cynomolgus CD47-his proteins (Cat #: CD7-C52H1, Acro biosystems), 2-fold dilution in HBS-EP⁺ buffer (provided by Biacore) with a starting concentration of 200 nM, were flowed onto the chip at a flow rate of 30 μl/min. The association kinetics was followed for 2 minutes and the dissociation kinetics was followed for 10 minutes. The association and dissociation curves were fit to a 1:1 Langmuir binding model using the Biacore evaluation software.

Assay [2] concerns the target T2, full length human CD40 (uniprot #P25942-1) on 293T-CD40 cells (human, UniProt P25942 21-277).
T2 construct: whole, on cells
In words: FACS on 293T-CD40 cells, detection with goat anti-human IgG (Fab)-PE, MFI. The procedure:
Following an incubation of 40 minutes at 4° C. in dark, cells were washed three times and resuspended in FACS buffer. Fluorescence was measured using a Becton Dickinson FACS Canto II-HTS equipment and plotted against the recombinant fusion protein or controls concentration. Data was analyzed using Graphpad Prism and EC₅₀ values were reported.

Assay [3] has as its target human CD40-Fc protein (prepared in-house) (human). In words: competitive ELISA: human CD40-Fc coated, blocked ligand biotin-labeled human CD40L-his, OD(450-630). Here is the method: The ability of the recombinant fusion proteins of the disclosure to block CD40-CD40L binding was measured in a competitive ELISA assay. Briefly, 100 μl/well human CD40-Fc proteins (prepared in-house with amino acid sequence of SEQ ID NO: 22) were coated on 96-well micro plates at 2 μg/mL in coating buffer (carbonate/bicarbonate buffer) and incubated overnight at 4° C. The next day, the plates were washed once with wash buffer (PBS+0.05% v/v Tween-20, PBST), and then blocked with 5% w/v non-fatty milk in PBST for 2 hours at 37° C. The plates were then washed 4 times using the wash buffer.
Serially diluted recombinant fusion proteins of the disclosure or controls (starting at 10 µg/mL with a 5-fold serial dilution) in PBST with 2.5% w/v non-fatty milk were added to the CD40-Fc bound plates, 100 μl per well, and incubated at 37° C. for 40 minutes. The plates were washed 4 times using wash buffer, and then added and incubated for 40 minutes at 37° C. with 100 μl/well 95 ng/mL biotin-labeled human CD40L-his protein (Cat #: 10239-H08E, Sino biological). The plates were washed again using wash buffer, added with 100 μl/well streptavidin conjugated HRP (1:10000 dilution in PBST buffer, Cat #: 016-030-084, Jackson ImmunoResearch) and incubated for 40 minutes at 37° C. The plates were washed again using wash buffer. […] The absorbance was read on a microplate reader using the dual wavelength mode with 450 nm for TMB and 630 nm as the reference wavelength, then the OD (450-630) values were plotted against the recombinant fusion protein or controls concentration. Data was analyzed using Graphpad Prism and IC₅₀ values were reported.

Assay [4] deals with T3, human CD47-his protein (Cat #: CD7-H5227, Acro biosystems) (human, UniProt Q08722 19-139).
T3 construct: Bought protein
T3 sequence (Q08722 19-139 limits assumed): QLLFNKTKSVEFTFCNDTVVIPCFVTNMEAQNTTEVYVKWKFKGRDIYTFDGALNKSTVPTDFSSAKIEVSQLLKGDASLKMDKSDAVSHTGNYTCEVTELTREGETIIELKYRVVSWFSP
In words: dual-binding ELISA: human CD40-Fc coated, binder titrated, detected with human CD47-his and anti-His-HRP, OD450. The procedure:
The binding activity of the recombinant fusion proteins to human CD40 and CD47 was also tested by dual-binding ELISA assay. Briefly, 100 μl/well human CD40-Fc proteins (Cat #: CD0-H5253, ACRO Biosystems) were coated on 96-well plates at 0.2 μg/mL in PBS and incubated overnight at 2-8° C. The next day, the plates were washed 3 times using wash buffer (PBS+0.05% v/v Tween-20, PBST), and then blocked with block buffer (PBS+1% w/v BSA) for 3 hours at 37° C. The plates were then washed 3 times using the wash buffer.
Serially diluted recombinant fusion proteins of the disclosure or controls (starting at 100 nM with a 6-fold serial dilution) in block buffer were added to the CD40-Fc bound plates, 100 μL per well, and incubated at 37° C. for 1 hour. The plates were washed 3 times using wash buffer, and then added and incubated for 1 hour at 37° C. with 100 μl/well 3 μg/mL human CD47-his protein (Cat #: CD7-H5227, ACRO Biosystems). The plates were washed again using wash buffer, added with 100 μl/well Anti-His tag Antibody (HRP) (1:2000 dilution in block buffer, Cat #: 105327-MM02T-H, Sino Biological) and incubated for 1 hour at 37° C. The plates were washed again using wash buffer. […] The absorbance was read using a microplate reader set to 450 nm, then the OD (450) values were plotted against the recombinant fusion protein or controls concentration. Data was analyzed using Graphpad Prism and EC₅₀ values were reported.

B1: HuCD40-C1H1-V2 (antibody, human IgG2, kappa, V domains shown)
VH: EVQLVESGGGLVKPGGSLRLSCAASGFTFSNYGISWVRQAPGKGLEWVSSISSGGDNTYYPDNVKGRFTISRDNAKNSLYLQMNSLRAEDTAVYYCARAGEKAMDYWGQGTLVTVSS
VL: EIVLTQSPATLSLSPGERATLSCRASQTINNNLHWYQQKPGQAPRLLIKYASQSISGIPARFSGSGSGTDFTLTISSLEPEDFAVYFCQQFSSWPLTFGGGTKVEIKR
notes: Humanized anti-CD40 IgG with human IgG2 heavy chain constant region; also called anti-CD40 antibody HuCD40-C1H1-V2
Regarding B1, in assay [1], the dissociation constant (Kd) stood at 1.05 nM, the koff was 0.00169 s⁻¹ and the kon was 1.62e+06 M⁻¹ s⁻¹. The EC50 in assay [2] was 1.06 nM. In assay [3], this molecule yielded an IC50 of 1.01 nM. The binding result in assay [4] is reported as “no binding (tested: 100 nM)”.
